The values below come from the nanobody polyreactivity screen of Harvey et al. (2022).

The nature of this series: yeast display, Sf9 membrane polyspecificity reagent, FACS + sequencing; frameworks hold sequencing errors. Put shortly: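 Genes from sorted yeast were amplified by colony PCR, read by MiSeq 2 × 250 sequencing and filtered on CDR length. These cells carried a synthetic nanobody library in Saccharomyces cerevisiae BJ5465 and were sorted by FACS into low and high (top ~1%) gates on anti-HA and streptavidin fluorescence. Polyreactivity is labelled according to the gate of origin.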
Consider “QVQLVESGGGLVQAGGSLRLSCAASGRIFDSYAMGWYRQAPGKERELVASITCSGGSTYADSVKGRFTSSRDNAKNTVYLQMNSLKPEDTAVYYFDYWGQGTQVTVSS”, for which the “polyreactivity (PSR sort gate)” value is “low polyreactivity”.

For “QVQLVESGGGLVQAGGSLRLSCAASGRIFDTNAMGWYRQAPGKERELVAAITYSGGSTYYADSVKGRFTISRDNAKNTVYLQMNSLKPEDTAVYYCARVRPYSKYAYGYWGQGTQVTVSS”, the “polyreactivity (PSR sort gate)” value is reported as “high polyreactivity”.

Take “QVQLVESGGGLVQAGGSLRLSCAASGRIFDTNVMGWYRQAPGTDRDFVAAIRWNGGSTNYADSVKGRFTISRDNSKNTVYLQMNSLKPEDTAVYYCAADGYIGWRHIYEYWGQATQVTVSS”: the “polyreactivity (PSR sort gate)” value was “low polyreactivity”.

With “QVQLVESGGGLVQAGGSLRLSCAASGRIFDVNAMGWYRQAPGKERELVAAIRSGGRTNYADSVKGRFTISRDNAKNTVYLQMNSLKPEDTAVYYCAAVVWSSLDDYWGLGTQVTVSS”, the “polyreactivity (PSR sort gate)” value was “high polyreactivity”.

As to “QVQLVESGGGLVQAGGSLRLSCAASGRIFDVYAMGWYRQAPGKERALVAAITFSGGSTYYADSVKGRFTISRDNAKNTVYLQMNSLKPEDTAVYYCAAEYVDWFGDYDYWGQGTQVTVSS”, the “polyreactivity (PSR sort gate)” value is listed as “high polyreactivity”.

On to “QVQLVESGGGLVQAGGSLRLSCAASGRIFDWYVMGWYRQAPGKERELVAAINSGVSTKYADSVKGRFTISRDNAKNTVYLQMNSLKPEDTAVYYCAAQSFSDYRRTGRKSSYYYWGQGTQVTVSS”, for which the “polyreactivity (PSR sort gate)” value was “low polyreactivity”.

In the case of “QVQLVESGGGLVQAGGSLRLSCAASGRIFDYNAMGWYRQAPVKERELVATITTGGSTYYADSVKGRFTISRDNAKNTVYLQMYSLKPEDTAVYYCAARRWYFHYFAYGYWGQGTQVTVSS”, the “polyreactivity (PSR sort gate)” value is given as “low polyreactivity”.

With “QVQLVESGGGLVQAGGSLRLSCAASGRIFDYNSMGWSRPAPGKDRELVASITQRGDIPYYADSVKGRFTSSRDNAKNTVFLQMNSLNPDETAVYYGNADGVLVWVLPYVLYTGDYWGQGTQVTVSS”, the “polyreactivity (PSR sort gate)” value is reported as “low polyreactivity”.

Consider “QVQLVESGGGLVQAGGSLRLSCAASGRIFDYNVMGWYRQAPGKERELVAGISSGGSTYYADSVKGRFTISRDNAKNTVYLQMNSLKPEDTEVYYCAARGRPYRGYGYWGQGTQVTVSS”, for which the “polyreactivity (PSR sort gate)” value is “high polyreactivity”.

Turning to “QVQLVESGGGLVQAGGSLRLSCAASGRIFDYYAMGWYRQAPGKERELVARITSGGTTNYADSVKGRFTISRDNAKNTVYLQMNSLKPEDTAVYYCNAQDYSDPLQMDYWGQGTQVTVSS”, the “polyreactivity (PSR sort gate)” value is reported as “low polyreactivity”.

With “QVQLVESGGGLVQAGGSLRLSCAASGRIFDYYAMGWYRQAPGKERELVASISRSGGSTYYADSVKGRFTISRDNAKNTVYLQMNSLKPEDTAVYYCAARRGYYYGRVGYWGQGTQVTVTS”, the “polyreactivity (PSR sort gate)” value was “high polyreactivity”.

Consider “QVQLVESGGGLVQAGGSLRLSCAASGRIFDYYTMGWYRQAPGKERELVAAINWSGGSTYYADSVKGRITISRDKAKNTVYLQMNSLKPEDTAVYYCATLSYGREYGYWGQGTQVTVSS”, for which the “polyreactivity (PSR sort gate)” value is reported as “low polyreactivity”.

Turning to “QVQLVESGGGLVQAGGSLRLSCAASGRIFDYYTMGWYRQAPGKERELVAAISVRGGSTYYADSVKGRFTNSRDNAKNTVYLQMNSLKPEDTAVYYCAARSWRHRTYYYWGQGTQVTVSS”, the “polyreactivity (PSR sort gate)” value is reported as “high polyreactivity”.

Turning to “QVQLVESGGGLVQAGGSLRLSCAASGRIFEEYVMGWYRQAPGKERELVAAISFSGSRTYADSVKGRFTISRDNAKNTVYLQMNSLKPEDTAVYYCAADPSISYDYWGQGTQVTVSS”, the “polyreactivity (PSR sort gate)” value is “low polyreactivity”.

In the case of “QVQLVESGGGLVQAGGSLRLSCAASGRIFEGYAMGWYRQAPGKEELVAAITSDASTYYADSVKGRFTISRDNAKNTVYLQMNSLKPEDTAVYYCAADTYDNDYYYWGQGTQVTVSS”, the “polyreactivity (PSR sort gate)” value is “high polyreactivity”.

As for “QVQLVESGGGLVQAGGSLRLSCAASGRIFEPYAMGWYRQAPGKERELFAAITSGGSTDYADSVKGRFTISRDNAKNTVYLQMNSLKPEDTAVYYCAARVTYGGIPARQIYDYWGQGTQVTVSS”, the “polyreactivity (PSR sort gate)” value is “low polyreactivity”.

Consider “QVQLVESGGGLVQAGGSLRLSCAASGRIFERYAMGWYRQAPGKERELVAAISWSGGSTYYADSVKGRFTISRDNAKNTVYLQMNSLKPEDTAVYYCAARKYRSFRQRTGDYWGQGTQVTVSS”, for which the “polyreactivity (PSR sort gate)” value is listed as “high polyreactivity”.

Regarding “QVQLVESGGGLVQAGGSLRLSCAASGRIFEVYAMGWYRQAPGKERELVARISDGGGSTYYADSVKGRFTISRDNAKNTVYLQMNSLKPEDTAVYYCAAGGDLRLDRRFAFVSRGDYWGQGTQVTVSS”, the “polyreactivity (PSR sort gate)” value is “low polyreactivity”.

Turning to “QVQLVESGGGLVQAGGSLRLSCAASGRIFFENTMGWYRQAPGKERELVAAISSSGTTNYADSVKGRFTISRDNAKNTVYLQMNSLKPEDTAVYYCNAVLHGEQVGKYIAYVYWGQGTQVTVAS”, the “polyreactivity (PSR sort gate)” value is listed as “low polyreactivity”.

As to “QVQLVESGGGLVQAGGSLRLSCAASGRIFFGNTMGWSRQAPGKERELVAVIDRSGGTTYYADSVKGRFTSSRDNAKNTVYLQMNSLKPEDTAVYYCAAIRRQKGLWDYYYWGQGTQVTVST”, the “polyreactivity (PSR sort gate)” value was “low polyreactivity”.

On to “QVQLVESGGGLVQAGGSLRLSCAASGRIFFKYAMGWYRQAPGKERELVAAISSSGGRTSYADSVKGRFTISRDNAKNTVYLQMNSLKPEDTAVYYCNVKPSARGSPLYDYWGQGTQVTVSS”, for which the “polyreactivity (PSR sort gate)” value is “high polyreactivity”.

Take “QVQLVESGGGLVQAGGSLRLSCAASGRIFFLYAMGWYRQAPGKERELVAAITKSGGSTYADSVKGRFTISLDNAKNTVYLQMNSLKPVDTAVYYCATENTECRDSGYIVKYGSDYWGQGTQVTVSS”: the “polyreactivity (PSR sort gate)” value was “low polyreactivity”.

Take “QVQLVESGGGLVQAGGSLRLSCAASGRIFFNYAMGWYRQAPGKERELVAAIRGGGSTYADSVKGRFTISCDNAKNTVYLQMNSLKPEDTAVYYCAARYSGSPYHTRRYYYWGQGTQVTVSS”: the “polyreactivity (PSR sort gate)” value is “high polyreactivity”.

For the sequence “QVQLVESGGGLVQAGGSLRLSCAASGRIFFPYAMGWYRQAPGKERELVAAINYSGGSTYYADSVKGRFTISRDNAKYTVYLQMNSLKPEDTAVYYCAKEYGKAYDYWGQGTLVTVSS”, the “polyreactivity (PSR sort gate)” value is listed as “high polyreactivity”.

“QVQLVESGGGLVQAGGSLRLSCAASGRIFFRNAMGWYRQAPGKDRELVAAITWNGGSTYYADSVKGRFTISRDNAKNTVYLQMNSLKPEDTAVYYCATKTLSRTRTYYYWGQCTQVTVSS”: the “polyreactivity (PSR sort gate)” value is “high polyreactivity”.

In the case of “QVQLVESGGGLVQAGGSLRLSCAASGRIFFRNAMGWYRQAPGKERELVAAISKSGTRTYYADSVKGRFTISRDNAKNTVYLQMHSLKPEDTAVYYCNALLRDCGTYAGDDYWGQGTQVTVSS”, the “polyreactivity (PSR sort gate)” value is given as “high polyreactivity”.

In the case of “QVQLVESGGGLVQAGGSLRLSCAASGRIFFRYAMGWYIQAPGKEREFVAAISGSAGSTYYADSVKGRFKISRDNAKNTVYLQMNSLKPEDTAVYYCAARKAKVSNGLKYDYWGQGTQVTVSS”, the “polyreactivity (PSR sort gate)” value is on record as “low polyreactivity”.

Regarding “QVQLVESGGGLVQAGGSLRLSCAASGRIFFRYDLGWYRQAPGKERELVAAISGGDRTSYADSVKGRFTISRDNAKITVYLQMNSLKPEDTAVYYCAGKRRSGEYYYWGQGTQVTVSS”, the “polyreactivity (PSR sort gate)” value is “low polyreactivity”.

Regarding “QVQLVESGGGLVQAGGSLRLSCAASGRIFFSNAMGWYRQAPGKERELVASITGGDDTNYADSVKGRFTISRDNAKNTVYLQMNSLKPEDTAVYYCAARAIPSYRWVYRFAPKYDYWGQGTQVTVSS”, the “polyreactivity (PSR sort gate)” value is reported as “low polyreactivity”.

Turning to “QVQLVESGGGLVQAGGSLRLSCAASGRIFFSTVMGWDRQAPGKERELVAAISWSGGSTYYADSVKGRFTISRDNAKNTVYLQMNSLKPEDTAVYYCNRLSASVQYGYWGQGTQVTVSS”, the “polyreactivity (PSR sort gate)” value was “high polyreactivity”.

Take “QVQLVESGGGLVQAGGSLRLSCAASGRIFFTNAMGWYTQAPGKERELVAAISKSGARTYYADSVKGRFTISRDNAKNTVYLLMNSLKPEDTAVYYCAADVCVYGYDYWGQGTQVTVSS”: the “polyreactivity (PSR sort gate)” value is reported as “high polyreactivity”.

Consider “QVQLVESGGGLVQAGGSLRLSCAASGRIFFTYVMGWYRQAPGKERELVATIRVSGGSTYYADSVKGRFTISRDNAKNTVYLQMNSLKPEDTAVYYCAASGASWSLHYAGDYWGQGTQVTVSS”, for which the “polyreactivity (PSR sort gate)” value is “high polyreactivity”.

“QVQLVESGGGLVQAGGSLRLSCAASGRIFFVYAMGWYRQAPGKERELVAAISVSDVSTSYADSVKGRFTISRDNAKNTVYLQMNSLKPEDTAVYYFNAGFRFYTYSRIAGEDYGGQGTQVTVSS”: the “polyreactivity (PSR sort gate)” value was “low polyreactivity”.

In the case of “QVQLVESGGGLVQAGGSLRLSCAASGRIFFVYAMGWYRQAPGKERELVAHIPSGGSTSYADSVKGRFTISRDNAKNTDYLQMNSLKPEDTAVYSCAARYLGYIYVYYHYTDDYWGQGTQVTVSS”, the “polyreactivity (PSR sort gate)” value is “low polyreactivity”.

Take “QVQLVESGGGLVQAGGSLRLSCAASGRIFFVYAMGWYRQAPGKERELVASITGGGSTNYADSVKGRFTISRDNAKNTVYLQMNSLKPEDTAVYYCGADIHSTRVFPEYPSGYDYWGQGTQVTVSS”: the “polyreactivity (PSR sort gate)” value is “low polyreactivity”.

For the sequence “QVQLVESGGGLVQAGGSLRLSCAASGRIFFWNALGWYRQAPGKEREFVATISWNDAITYYADSVKGRFTISRDNAKNTVYLQMNSLKPEDTAVYYCNVDPKIVFSFGYDYWGQGTQVTVSS”, the “polyreactivity (PSR sort gate)” value is recorded as “low polyreactivity”.

With “QVQLVESGGGLVQAGGSLRLSCAASGRIFFYAMGWYRQAPGKERELVASITTSGTSTYYADSVKGRFTISRDNAKNTVYLQMNSLKPEDTAVYYCNARVRYTVGPLSSLDGEYWGQGTQVTVSS”, the “polyreactivity (PSR sort gate)” value was “low polyreactivity”.

Regarding “QVQLVESGGGLVQAGGSLRLSCAASGRIFFYNAMGWYRQAPGKERELVAAIDSGSSTYYADSVKGRFTISRDNAKNTVYLQMTSLKPEDTAVYYCAADGRRWYTEYDYWGQGTQVTVSS”, the “polyreactivity (PSR sort gate)” value is reported as “low polyreactivity”.

Regarding “QVQLVESGGGLVQAGGSLRLSCAASGRIFFYNVMGWYRQAPGKERELVAAITTIGGSTYYADSVKGRFTISRDNAKNTVYLQMNTLKPEDTAVYYCAAGWVTNSDGMDYWGQGTQVTVSS”, the “polyreactivity (PSR sort gate)” value was “low polyreactivity”.

For the sequence “QVQLVESGGGLVQAGGSLRLSCAASGRIFFYYAMGWYRQAPGTERELVAAITSGGNTNYADSVKGRFTISRDNAKNTVYLQMNSLKPEDTAVYYCAVDSWEYWRRGIYYYRFYYWGQGTQVTVSS”, the “polyreactivity (PSR sort gate)” value is recorded as “low polyreactivity”.

Consider “QVQLVESGGGLVQAGGSLRLSCAASGRIFGANAMGWYRQAPGKERELVAAISRTGGSTYYADSVKGRFTISRDNAKNTVYLQMNSLKPEDTAVYYCNAVYRYAHPMEYWGQGTQVTVSS”, for which the “polyreactivity (PSR sort gate)” value was “high polyreactivity”.
